Experimental data: US20250042977A1 (WUHAN BANKE BIOTECHNOLOGY, published 2025)

Tests used:
[1] = molecular target: F protein of respiratory syncytial virus type A (RSV A) (human respiratory syncytial virus type A); assay: cell-based or functional assay
[2] = molecular target: F protein of respiratory syncytial virus type B (RSV B) (human respiratory syncytial virus type B); assay: cell-based or functional assay
[3] = molecular target: T1, recombinant human respiratory syncytial virus envelope protein F fused to the Fc fragment of antibody IgG1 … (human respiratory syncytial virus, UniProt P03420 26-524; P01857 99-330 = IgG part); assay: ELISA, recF (4 ug/mL) coated, detection with HRP-Anti-FLAG
T1 construct: also called recombinant F protein; RSV F protein
T1 sequence (P03420 26-524, tags or fused parts left off): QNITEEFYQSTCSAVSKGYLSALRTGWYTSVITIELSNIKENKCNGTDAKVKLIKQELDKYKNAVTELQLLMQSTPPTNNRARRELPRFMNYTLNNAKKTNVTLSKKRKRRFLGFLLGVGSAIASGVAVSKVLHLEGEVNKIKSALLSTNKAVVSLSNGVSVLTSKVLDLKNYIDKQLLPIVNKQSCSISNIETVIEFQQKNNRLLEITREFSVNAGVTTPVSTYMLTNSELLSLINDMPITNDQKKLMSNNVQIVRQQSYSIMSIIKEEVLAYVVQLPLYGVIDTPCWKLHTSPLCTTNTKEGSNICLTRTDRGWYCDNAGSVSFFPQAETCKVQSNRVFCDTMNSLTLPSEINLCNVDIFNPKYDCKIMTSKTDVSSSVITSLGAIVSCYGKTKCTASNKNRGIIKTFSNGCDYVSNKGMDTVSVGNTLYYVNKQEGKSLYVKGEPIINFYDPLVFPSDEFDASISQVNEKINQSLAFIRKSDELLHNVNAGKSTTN

[4] = molecular target: T2, bovine serum albumin (bovine, UniProt P02769 25-607); assay: ELISA, BSA as negative control, detection with HRP-Anti-FLAG
T2 construct: Negative control; also called BSA
T2 sequence (P02769 25-607 limits assumed): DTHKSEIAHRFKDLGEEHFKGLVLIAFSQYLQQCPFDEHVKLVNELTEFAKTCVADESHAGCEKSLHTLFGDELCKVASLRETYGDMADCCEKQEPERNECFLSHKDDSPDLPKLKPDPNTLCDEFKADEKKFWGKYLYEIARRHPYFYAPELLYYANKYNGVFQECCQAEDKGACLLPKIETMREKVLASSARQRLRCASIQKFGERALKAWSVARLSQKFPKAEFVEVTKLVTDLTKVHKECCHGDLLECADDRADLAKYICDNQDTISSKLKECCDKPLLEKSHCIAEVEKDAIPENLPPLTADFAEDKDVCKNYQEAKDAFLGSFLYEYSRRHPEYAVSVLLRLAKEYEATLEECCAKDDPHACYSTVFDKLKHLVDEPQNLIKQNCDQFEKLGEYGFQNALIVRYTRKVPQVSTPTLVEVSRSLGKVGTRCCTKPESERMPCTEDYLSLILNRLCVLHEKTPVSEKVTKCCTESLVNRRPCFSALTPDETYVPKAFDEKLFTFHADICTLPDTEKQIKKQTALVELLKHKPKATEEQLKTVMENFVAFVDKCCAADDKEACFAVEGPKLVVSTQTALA
Protocol: recF (4 μg/mL) was coated on an ELISA plate and incubated overnight at 4° C. and then blocked with PBS+3% milk at 37° C. for 1 h. […] The plate was then washed four times with PBST (PBS+0.05% Tween 20) and then incubated with HRP-Anti-FLAG monoclonal antibody at 37° C. for 1 h. The ABTS was added for color development. Bovine serum albumin (BSA) was used as a negative control.

B1: C-based single domain antibody BBT-VC001-1 (designed binder)
chain: PSVLCLPPKPKDTLVISRTPEVTCVVSGYNPYDFPIIKFKWYVDGVEVDNAKVKPRDENSYNTDSVVSKLTVLHQDWLNGKEYKCKVSAREGGSSGEWYYDLWGPIECTISKAK
notes: expressed in E. coli HB2151; also called C-type nanobody BBT-VC001-1; BBC-VC001-1; not shown: C-terminal 6x His tag and FLAG tag
IC50 for inhibition of respiratory syncytial virus type A (infection of Hep-2 cells) [1]: 8.33 ng/mL
IC50 for inhibition of respiratory syncytial virus type B (infection of Hep-2 cells) [2]: 8.42 ng/mL
EC50 [3]: 28 nM
binding result [4]: no binding
